In patent publication US8114627:

What was measured:
[1] = target: [Leu1, Thr2]-63-desulfo-hirudin (Lepirudin (Refludan)) (UniProt P01050)
[2] = target: sulfo-hirudin ([Leu1, Thr2]-hirudin with sulfotyrosine at position 63, expressed in E. coli) (UniProt P01050)

human α-thrombin (Diapharma) was tested, and the “cleavage of the fluorogenic substrate by thrombin (fluorescence intensity over time)” value [1] was “Cleavage of the fluorogenic substrate by thrombin, whose activity is inhibited to different degrees by sulfo-hirudin and desulfo-hirudin” and the “cleavage of the fluorogenic substrate by thrombin (fluorescence intensity over time)” value [2] was “Cleavage of the fluorogenic substrate by thrombin, whose activity is inhibited to different degrees by sulfo-hirudin and desulfo-hirudin”.
